From patent publication US20120164159A1 (OPSONA THERAPEUTICS, published 2012) come the findings set out here.

Experiment [1] deals with T1, rmTLR2/Fc (recombinant murine TLR-2) (Mus musculus, UniProt Q9QUN7 25-587, limits assumed).
T1 construct: Recombinant Fc fusion used as SPR analyte, MW of 98 kDa printed; also called murine receptor
T1 sequence: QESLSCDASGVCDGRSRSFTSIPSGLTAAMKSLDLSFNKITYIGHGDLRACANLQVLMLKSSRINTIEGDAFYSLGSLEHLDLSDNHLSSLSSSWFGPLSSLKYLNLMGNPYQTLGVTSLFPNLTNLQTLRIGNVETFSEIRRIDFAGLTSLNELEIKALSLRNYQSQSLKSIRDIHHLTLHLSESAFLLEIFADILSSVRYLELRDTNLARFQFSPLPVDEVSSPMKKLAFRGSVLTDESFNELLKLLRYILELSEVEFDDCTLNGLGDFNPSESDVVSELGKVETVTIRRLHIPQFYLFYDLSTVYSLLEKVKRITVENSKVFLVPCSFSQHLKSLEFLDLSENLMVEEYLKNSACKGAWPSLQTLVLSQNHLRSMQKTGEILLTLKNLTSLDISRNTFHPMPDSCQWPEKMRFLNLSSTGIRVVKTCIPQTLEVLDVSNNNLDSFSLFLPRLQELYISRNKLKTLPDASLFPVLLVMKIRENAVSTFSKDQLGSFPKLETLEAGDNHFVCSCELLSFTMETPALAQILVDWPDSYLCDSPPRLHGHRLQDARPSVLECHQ
As to the kind of experiment: SPR, Biacore T100, antibody amine-coupled to CM5 chip, receptor as analyte, bivalent binding model, 25 C. How it is done:
(§1) Upon insertion of the CM5 chip the system was primed and then normalised with BIAnormalising solution (Biacore Preventative Maintenance Kit 2). All samples were run at 25° C. with a sample rack incubated at 25° C. unless stated. The chip was added to the system with HBS-EP used as the running buffer. The chip surface was primed with two 30 second injections of 50 mM NaOH then left until a stable baseline was obtained in all the Flow cells (Fcs).
(§2) All antibodies were immobilised using standard amine coupling chemistry. Immobilisation was carried out at a protein concentration of around 1 μg.ml-1 in 10 mM Acetate buffer pH5.5 to a target response level of 150RUs on three CM5 Series S sensor chips. Kinetic data was obtained at a flow rate of 40 μl·min-1 to minimise any potential mass transfer effects. The blank (no receptor) and a single concentration of the analytes (100 nM) was repeated at the start of the kinetic runs in order to check the stability of both the surface and two receptors over the kinetic analyses. Two repeats of the kinetic analysis were carried out and the results compared.
(§3) Association rates (Kₒₙ) and dissociation rates (Koff) were calculated using a bivalent binding model (BIAcore Evaluation Software version 3.2). The equilibrium dissociation constant (Ko) was calculated as the ratio […].

Experiment [2] concerns the target T2, rhTLR-2 (recombinant human TLR-2) (human, UniProt O60603 21-588, limits assumed).
T2 construct: Soluble recombinant protein reconstituted from dry powder, used as SPR analyte; also called glycosylated human receptor analyte
The description is as above. As for the experimental part: as §1, §2, §3

The target of experiment [3] is T3, monkey Toll-like Receptor 2 expressed on cynomologus monkey whole blood cells (granulocytes, monocytes) (cynomologus monkey, UniProt Q95M53 19-784).
T3 construct: whole, on cells; also called monkey TLR2
T3 sequence (Q95M53 19-784): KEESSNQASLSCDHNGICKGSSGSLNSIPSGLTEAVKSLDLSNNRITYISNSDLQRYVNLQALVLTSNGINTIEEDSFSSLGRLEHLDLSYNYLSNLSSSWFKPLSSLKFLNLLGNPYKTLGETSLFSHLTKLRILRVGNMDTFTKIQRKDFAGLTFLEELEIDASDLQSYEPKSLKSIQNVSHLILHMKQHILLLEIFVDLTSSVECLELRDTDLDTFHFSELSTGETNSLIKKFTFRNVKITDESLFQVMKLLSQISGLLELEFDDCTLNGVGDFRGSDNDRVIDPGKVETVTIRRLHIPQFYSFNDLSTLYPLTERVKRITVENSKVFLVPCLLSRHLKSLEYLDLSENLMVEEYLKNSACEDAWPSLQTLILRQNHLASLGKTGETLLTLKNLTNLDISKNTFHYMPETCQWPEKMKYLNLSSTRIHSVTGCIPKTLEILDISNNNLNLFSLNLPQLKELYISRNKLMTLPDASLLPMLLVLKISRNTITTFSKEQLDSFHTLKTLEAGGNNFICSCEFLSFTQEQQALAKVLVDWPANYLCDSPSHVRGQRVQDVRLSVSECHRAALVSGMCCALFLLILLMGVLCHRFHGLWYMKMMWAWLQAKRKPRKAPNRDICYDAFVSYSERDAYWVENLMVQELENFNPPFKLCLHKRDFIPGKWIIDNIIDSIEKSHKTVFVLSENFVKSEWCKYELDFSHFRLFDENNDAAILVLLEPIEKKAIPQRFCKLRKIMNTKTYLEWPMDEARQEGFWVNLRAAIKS
Put plainly: FACS, cynomolgus whole blood, gate Granulocytes (R3), biotinylated OPN301, detection SA-PECy7 [A]. How it is done: Cells were then washed and incubated with streptavidin conjugated to PECy7 for a further 30 minutes.
Binding was measured using FACScalibur from Becton Dickinson. FIG. 14A relates to granulocytes. FIG. 14B relates to monocytes. FIG. 14C relates to lymphocytes. […] Accordingly, it can again be seen that OPN305 is competing for monkey Toll-like Receptor 2 binding.
Background: A flow cytometer gives signals particle by particle.

Experiment [4] deals with T3, monkey Toll-like Receptor 2 expressed …. As to the kind of experiment: FACS, cynomolgus whole blood, gate Granulocytes (R3), OPN305 + FITC mouse anti-hIgG4 [A].

T2 sequence (O60603 21-588 limits assumed): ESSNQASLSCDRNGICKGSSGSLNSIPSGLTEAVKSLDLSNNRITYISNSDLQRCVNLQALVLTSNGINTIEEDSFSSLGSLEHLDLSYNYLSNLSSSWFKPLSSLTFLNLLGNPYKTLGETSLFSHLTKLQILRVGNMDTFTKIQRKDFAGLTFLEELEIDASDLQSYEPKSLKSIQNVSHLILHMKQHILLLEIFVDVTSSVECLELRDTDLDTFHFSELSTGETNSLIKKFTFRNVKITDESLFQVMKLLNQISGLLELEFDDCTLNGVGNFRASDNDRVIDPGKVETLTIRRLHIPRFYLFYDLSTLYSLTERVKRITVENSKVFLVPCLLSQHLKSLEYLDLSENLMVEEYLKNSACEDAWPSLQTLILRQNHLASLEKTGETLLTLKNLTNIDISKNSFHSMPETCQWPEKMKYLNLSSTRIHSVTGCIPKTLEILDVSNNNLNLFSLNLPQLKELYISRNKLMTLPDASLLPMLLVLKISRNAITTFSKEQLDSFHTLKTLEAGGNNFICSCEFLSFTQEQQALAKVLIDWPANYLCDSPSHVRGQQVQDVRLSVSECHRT

B1: T2.5 murine anti-Toll-like Receptor 2 monoclonal antibody (clone T2.5, HyCult Biotechnology, catalogue number 1054) (antibody, mouse IgG1, V domains shown)
VH: QVQLQQSGPELVNPGASVKLSCKASGFTFTTYGINWVKQGPGQGLEWIGWIYPRDGSTNFNENFKDKAALTVDTSSSTAYMELHSLTSEDSAVYFCARLTGGTFLDYWGQGTTLTVSS
VL: DIVLTQSPASLAVSLGQRATISCRASESVEYYGTSLMQWYQQKPGQPPKLLIFGASNVESGVPVRFSGSGSGTDFSLNIHPVEEDDIVMYFCQQSRKLPWTFGGGTKLEIK
notes: Murine IgG1, bought; also called OPN301
On to B1, for which, in experiment [1], the Kd came out at 15.6 nM, the koff was found to be 0.000141 s⁻¹ and the kon was 9700 M⁻¹ s⁻¹. Moreover, in experiment [2], the Kd was determined as 48.2 nM, the koff turned out to be 0.00023 s⁻¹ and the kon amounted to 4820 M⁻¹ s⁻¹. For the same molecule, the binding result in experiment [3] is “binds”.

B2: OPN-305 fully humanised anti-Toll-like Receptor 2 monoclonal antibody (antibody, human IgG4 S228P, kappa, V domains shown)
VH: QVQLVQSGSELKKPGASVKLSCKASGFTFTTYGINWVRQAPGQGLEWIGWIYPRDGSTNFNENFKDRATITVDTSASTAYMELSSLRSEDTAVYFCARLTGGTFLDYWGQGTTVTVSS
VL: DIVLTQSPATLSLSPGERATLSCRASESVEYYGTSLMQWYQQKPGQPPKLLIFGASNVESGVPDRFSGSGSGTDFTLKISRVEAEDVGMYFCQQSRKLPWTFGGGTKVEIKR
notes: made in NS0 cells; also called variant 21
With B2, in experiment [1], the Kd turned out to be 11.9 nM, the koff is 8.2e-05 s⁻¹ and the kon is 6770 M⁻¹ s⁻¹. In experiment [2], the Kd amounted to 28.9 nM, the dissociation rate constant (koff) was 8.95e-05 s⁻¹ and the kon was found to be 3100 M⁻¹ s⁻¹. Also, in experiment [4], the binding result is “binds”.

Broadly, the koff is the rate constant with which the complex falls apart. As a reminder, the kon is a measure of how fast the partners come together.
